Experimental data from patent publication US20110015122, “[…] B VIRUS-BINDING POLYPEPTIDES AND METHODS OF USE […]” (published 2011).

How the values were obtained:
Conditions in all cases: tags: MBP fusion (pMAL); label: 5'-biotin sense strand (SPR)
ZFPr = ZFPr (synthetic); assay: SPR; HBS-EP; EMSA na
ZFPu = ZFPu (synthetic); assay: SPR; HBS-EP; EMSA na
ZFPd = ZFPd (synthetic); assay: SPR; HBS-EP; text elsewhere calls ZFPe the picomolar binder
ZFPk = ZFPk (synthetic); assay: SPR; HBS-EP
ZFPn = ZFPn (synthetic); assay: SPR; HBS-EP
ZFPn (synthetic), sequence (chain, as listed by the source): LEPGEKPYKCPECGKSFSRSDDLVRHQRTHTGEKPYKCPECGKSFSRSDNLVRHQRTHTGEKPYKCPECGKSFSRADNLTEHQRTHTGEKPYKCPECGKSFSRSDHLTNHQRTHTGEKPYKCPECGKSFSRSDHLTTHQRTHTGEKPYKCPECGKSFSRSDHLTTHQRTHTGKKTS

ZFPb = ZFPb (synthetic); assay: SPR; HBS-EP, 1:1 with drifting baseline
ZFPb (synthetic), sequence (chain, as listed by the source): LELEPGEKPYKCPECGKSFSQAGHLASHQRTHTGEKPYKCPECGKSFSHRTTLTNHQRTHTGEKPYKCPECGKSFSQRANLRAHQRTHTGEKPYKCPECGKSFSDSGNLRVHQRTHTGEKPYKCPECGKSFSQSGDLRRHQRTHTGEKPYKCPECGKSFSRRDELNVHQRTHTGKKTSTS

ZFPa = ZFPa (synthetic); assay: SPR; HBS-EP, 1:1 with drifting baseline
ZFPa (synthetic), sequence (chain, as listed by the source): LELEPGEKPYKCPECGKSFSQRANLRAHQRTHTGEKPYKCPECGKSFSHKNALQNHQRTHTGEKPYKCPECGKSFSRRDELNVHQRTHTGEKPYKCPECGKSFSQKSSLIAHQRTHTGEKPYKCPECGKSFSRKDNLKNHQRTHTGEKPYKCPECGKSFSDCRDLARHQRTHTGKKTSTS

ZFPc = ZFPc (synthetic); assay: SPR; HBS-EP, 1:1 with drifting baseline
ZFPc (synthetic), sequence (chain, as listed by the source): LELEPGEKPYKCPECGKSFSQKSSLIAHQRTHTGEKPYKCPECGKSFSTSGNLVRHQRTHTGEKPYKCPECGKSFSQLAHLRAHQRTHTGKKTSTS

ZFPq = ZFPq (synthetic); assay: SPR; HBS-EP; EMSA na
ZFPq (synthetic), sequence (chain, as listed by the source): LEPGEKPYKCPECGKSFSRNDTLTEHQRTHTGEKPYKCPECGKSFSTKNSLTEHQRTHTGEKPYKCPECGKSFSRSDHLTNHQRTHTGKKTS

ZFPt = ZFPt (synthetic); assay: SPR; HBS-EP; EMSA na
ZFPt (synthetic), sequence (chain, as listed by the source): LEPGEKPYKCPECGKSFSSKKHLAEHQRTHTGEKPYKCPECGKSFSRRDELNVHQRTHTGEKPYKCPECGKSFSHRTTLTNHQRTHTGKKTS

ZFPe = ZFPe (synthetic); assay: SPR; HBS-EP; text elsewhere calls ZFPe the picomolar binder
ZFPe (synthetic), sequence (chain, as listed by the source): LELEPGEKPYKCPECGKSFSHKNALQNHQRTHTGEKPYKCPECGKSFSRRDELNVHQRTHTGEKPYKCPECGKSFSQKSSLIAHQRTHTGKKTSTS

ZFPf = ZFPf (synthetic); assay: SPR; HBS-EP, 1:1 Langmuir
ZFPf (synthetic), sequence (chain, as listed by the source): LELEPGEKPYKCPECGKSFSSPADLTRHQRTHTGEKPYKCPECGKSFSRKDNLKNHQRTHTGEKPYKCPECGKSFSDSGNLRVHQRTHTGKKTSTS

ZFPk (synthetic), sequence (chain, as listed by the source): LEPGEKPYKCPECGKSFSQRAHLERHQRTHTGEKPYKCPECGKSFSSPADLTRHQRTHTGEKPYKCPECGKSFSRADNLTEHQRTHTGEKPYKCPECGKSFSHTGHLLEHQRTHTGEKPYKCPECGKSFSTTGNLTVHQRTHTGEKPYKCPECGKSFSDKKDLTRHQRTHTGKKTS
ZFPr (synthetic), sequence (chain, as listed by the source): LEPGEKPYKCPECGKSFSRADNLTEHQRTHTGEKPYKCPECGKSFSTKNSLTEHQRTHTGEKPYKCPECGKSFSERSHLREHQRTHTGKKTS
ZFPu (synthetic), sequence (chain, as listed by the source): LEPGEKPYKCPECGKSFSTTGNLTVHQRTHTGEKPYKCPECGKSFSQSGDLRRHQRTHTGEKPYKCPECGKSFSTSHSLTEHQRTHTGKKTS
ZFPd (synthetic), sequence (chain, as listed by the source): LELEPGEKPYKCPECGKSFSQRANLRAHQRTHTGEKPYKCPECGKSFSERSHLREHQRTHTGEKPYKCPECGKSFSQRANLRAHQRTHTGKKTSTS

B1: ZFPr target oligo (dsDNA)
DNA 1: AGTACTAGCCCTCAGAGTACT
DNA 2: AGTACTCTGAGGGCTAGTACT
Question: With B1 as the binder, how does the Kd (ZFPr) read?
Answer: 502 nM

B2: ZFPu target oligo (dsDNA)
DNA 1: AGTACTCCAGCAAATAGTACT
DNA 2: AGTACTATTTGCTGGAGTACT
Question: Which Kd (ZFPu) does the source give for B2 here?
Answer: 2470 nM

B3: ZFPd target oligo (dsDNA)
DNA 1: AGTACTAAAAGCAAAAGTACT
DNA 2: AGTACTTTTGCTTTTAGTACT
Question: How did the Kd (ZFPd) turn out when B3 was run?
Answer: 0.471 nM

B4: ZFPk target oligo (dsDNA)
DNA 1: AGTACTACCAATCGCCAGACAGGAAGTACT
DNA 2: AGTACTTCCTGTCTGGCGATTGGTAGTACT
Question: With B4 as the binder, how does the Kd (ZFPk) read?
Answer: 5.14 nM

B5: ZFPn target oligo (dsDNA)
DNA 1: AGTACTTGGTGGAGGCAGGAGGCGAGTACT
DNA 2: AGTACTCGCCTCCTGCCTCCACCAAGTACT
Question: How did the Kd (ZFPn) turn out when B5 was run?
Answer: 69.4 nM

B6: ZFPb target oligo (dsDNA)
DNA 1: AGTACTATGGCAAACAAAAGTTGAAGTACT
DNA 2: AGTACTTCAACTTTTGTTTGCCATAGTACT
Question: How did the Kd (ZFPb) turn out when B6 was run?
Answer: 40.2 nM

B7: ZFPa target oligo (dsDNA)
DNA 1: AGTACTGCCAAGATAATGATTAAAAGTACT
DNA 2: AGTACTTTTAATCATTATCTTGGCAGTACT
Question: How did the Kd (ZFPa) turn out when B7 was run?
Answer: 12.3 nM

B8: ZFPc target oligo (dsDNA)
DNA 1: AGTACTAGAGATATAAGTACT
DNA 2: AGTACTTATATCTCTAGTACT
Question: How did the Kd (ZFPc) turn out when B8 was run?
Answer: 99 nM

B9: ZFPq target oligo (dsDNA)
DNA 1: AGTACTAGGCCTCCGAGTACT
DNA 2: AGTACTCGGAGGCCTAGTACT
Question: How did the Kd (ZFPq) turn out when B9 was run?
Answer: 1290 nM

B10: ZFPt target oligo (dsDNA)
DNA 1: AGTACTAGTATGCCCAGTACT
DNA 2: AGTACTGGGCATACTAGTACT
Question: Which Kd (ZFPt) does the source give for B10 here?
Answer: 1070 nM

B11: ZFPe target oligo (dsDNA)
DNA 1: AGTACTATAATGATTAGTACT
DNA 2: AGTACTAATCATTATAGTACT
Question: How did the Kd (ZFPe) turn out when B11 was run?
Answer: 67.1 nM

B12: ZFPf target oligo (dsDNA)
DNA 1: AGTACTAACAAGACAAGTACT
DNA 2: AGTACTTGTCTTGTTAGTACT
Question: For B12, which Kd (ZFPf) is on record?
Answer: 185000 nM
